Source: publication PMC11773481

Biological target: purified recombinant DPP9-FLAG, Q86TI2
Assay: SEC + native gel or EMSA; protein expressed alone in Expi293F, purified by anti-FLAG IP, Superdex 200 Increase 10/300 GL; BN-PAGE immunoblot
Settings: remark: other sources report otherwise

B1: purified recombinant DPP9-FLAG, Q86TI2 1-863 (enzyme)
chain: MATTGTPTADRGDAAATDDPAARFQVQKHSWDGLRSIIHGSRKYSGLIVNKAPHDFQFVQKTDESGPHSHRLYYLGMPYGSRENSLLYSEIPKKVRKEALLLLSWKQMLDHFQATPHHGVYSREEELLRERKRLGVFGITSYDFHSESGLFLFQASNSLFHCRDGGKNGFMVSPMKPLEIKTQCSGPRMDPKICPADPAFFSFINNSDLWVANIETGEERRLTFCHQGLSNVLDDPKSAGVATFVIQEEFDRFTGYWWCPTASWEGSEGLKTLRILYEEVDESEVEVIHVPSPALEERKTDSYRYPRTGSKNPKIALKLAEFQTDSQGKIVSTQEKELVQPFSSLFPKVEYIARAGWTRDGKYAWAMFLDRPQQWLQLVLLPPALFIPSTENEEQRLASARAVPRNVQPYVVYEEVTNVWINVHDIFYPFPQSEGEDELCFLRANECKTGFCHLYKVTAVLKSQGYDWSEPFSPGEDEFKCPIKEEIALTSGEWEVLARHGSKIWVNEETKLVYFQGTKDTPLEHHLYVVSYEAAGEIVRLTTPGFSHSCSMSQNFDMFVSHYSSVSTPPCVHVYKLSGPDDDPLHKQPRFWASMMEAASCPPDYVPPEIFHFHTRSDVRLYGMIYKPHALQPGKKHPTVLFVYGGPQVQLVNNSFKGIKYLRLNTLASLGYAVVVIDGRGSCQRGLRFEGALKNQMGQVEIEDQVEGLQFVAEKYGFIDLSRVAIHGWSYGGFLSLMGLIHKPQVFKVAIAGAPVTVWMAYDTGYTERYMDVPENNQHGYEAGSVALHVEKLPNEPNRLLILHGFLDENVHFFHTNFLVSQLIRAGKPYQLQIYPNERHSIRCPESGEHYEVTLLHFLQEYL
With B1 the stoichiometry N was 2.
